Key:
Settings in all cases: both partners purified
[1] = target: T1, M1-linked diUb (UniProt P0CG48 1-152); assay: ITC; ubiquitin species titrated into the SPRTN fragment (arrows in Supplementary Figures 4A, 4D, 6A); 25°C; 50 mM HEPES pH 7.4, 50 mM NaCl, 0.5 mM TCEP-HCl; one-site binding model; at least 3 repeats, undetectable pairs 1 repeat
T1 construct: two ubiquitin units head to tail on one chain (M1-linked, linear); plasmid pET-47b-N-His-Ub2; The His tag was removed by HRV 3C only for the 15N-labelled M1-Ub2 of the NMR work, as far as the methods tell; also called M1-Ub2; M1-Ub2 WT; source: E. coli BL21(DE3), purified (HisTrap, SEC)

[2] = target: T2, M1-linked tetraUb (UniProt P0CG48 1-304); assay: as above
T2 construct: four ubiquitin units head to tail on one chain (M1-linked, linear); plasmid pET-24-tetraUb; also called M1-Ub4; source: E. coli BL21(DE3), purified (HisTrap, SEC)

[3] = target: T3, M1-linked hexaUb (UniProt P0CG48 1-456); assay: as above
T3 construct: six ubiquitin units head to tail on one chain (M1-linked, linear); plasmid pET-24-hexaUb; also called M1-Ub6; source: E. coli BL21(DE3), purified (HisTrap, SEC)

[4] = target: T4, M1-linked tetraUb (His-tagged M1-Ub4) (UniProt P0CG48 1-76; P0CG48 1-76; P0CG48 1-76; P0CG48 1-76); assay: ITC; MicroCal PEAQ-ITC, 25°C, 50 mM HEPES pH 7.4, 50 mM NaCl, 0.5 mM TCEP–HCl; one-site binding model; who was in the syringe is not told
T4 construct: ubiquitin unit 1 of 4, joined head to tail (M1-linked); ubiquitin unit 2 of 4; ubiquitin unit 3 of 4; ubiquitin unit 4 of 4; source: E. coli BL21(DE3), purified (HisTrap, SEC)

[5] = target: T5, M1-linked hexaUb (His-tagged M1-Ub6) (UniProt P0CG48 1-76; P0CG48 1-76; P0CG48 1-76; P0CG48 1-76; P0CG48 1-76; P0CG48 1-76); assay: as above
T5 construct: ubiquitin unit 1 of 6, joined head to tail (M1-linked); ubiquitin unit 2 of 6; ubiquitin unit 3 of 6; ubiquitin unit 4 of 6; ubiquitin unit 5 of 6; ubiquitin unit 6 of 6; source: E. coli BL21(DE3), purified (HisTrap, SEC)

[6] = target: T6, M1-linked diUb (His-tagged M1-Ub2) (UniProt P0CG48 1-76; P0CG48 1-76); assay: as above
T6 construct: ubiquitin unit 1 of 2 (distal), joined head to tail (M1-linked); ubiquitin unit 2 of 2 (proximal); its I44 is printed as position 120 of the chain; also called linear diUb; source: E. coli BL21(DE3), purified (HisTrap, SEC)

[7] = target: T7, Proliferating Cell Nuclear Antigen (UniProt P12004 1-261); assay: SPR; SPRTN PIP-UBZ amine-coupled to a CM5 chip (~1000 RU); analytes monoUb, PCNA, monoUb-PCNA; 50 mM HEPES pH 7.4, 50 mM NaCl, 0.5 mM TCEP-HCl; steady-state affinity model
T7 construct: PCNA; plasmid pET16b-PCNA (Addgene #134898); also called PCNA; source: E. coli BL21(DE3), purified (Q Sepharose, heparin, SEC)
T7 sequence (P12004 whole entry): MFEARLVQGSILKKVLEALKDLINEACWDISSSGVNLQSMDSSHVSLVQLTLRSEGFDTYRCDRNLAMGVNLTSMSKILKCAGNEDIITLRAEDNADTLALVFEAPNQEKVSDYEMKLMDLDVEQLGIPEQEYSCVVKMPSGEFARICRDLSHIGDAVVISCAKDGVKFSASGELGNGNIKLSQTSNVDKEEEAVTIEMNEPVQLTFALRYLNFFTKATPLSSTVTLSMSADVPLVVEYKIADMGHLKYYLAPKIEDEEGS

B1: SPRTN core region (26-240 aa), E112Q (domain or fragment, human, UniProt Q9H040 26-240, looked up)
chain: QESLSLVDASWELVDPTPDLQALFVQFNDQFFWGQLEAVEVKWSVRMTLCAGICSYEGKGGMCSIRLSEPLLKLRPRKDLVETLLHQMIHAYLFVTNNDKDREGHGPEFCKHMHRINSLTGANITVYHTFHDEVDEYRRHWWRCNGPCQHRPPYYGYVKRATNREPSAHDYWWAEHQKTCGGTYIKIKEPENYSKKGKGKAKLGKEPVLAAENKD
notes: SPRTN, human, residues 26-240 (MPD, ZBD and BR); plasmid pNIC28-SPRTN core (26-240), E112Q; also called SPRTN core (E112Q); SPRTN core E112Q; source: E. coli BL21(DE3), purified (Ni-NTA, TEV cleavage, SEC)
A Kd [1] of 132 ± 3.9 µM, a Kd [2] of 69.7 ± 6.9 µM and a Kd [3] of 34.8 ± 3.8 µM were found for B1 in this work.

B2: SPRTN core region (E112Q), enzymatically inactive (domain or fragment, human, UniProt Q9H040 26-240, looked up)
chain: QESLSLVDASWELVDPTPDLQALFVQFNDQFFWGQLEAVEVKWSVRMTLCAGICSYEGKGGMCSIRLSEPLLKLRPRKDLVETLLHQMIHAYLFVTNNDKDREGHGPEFCKHMHRINSLTGANITVYHTFHDEVDEYRRHWWRCNGPCQHRPPYYGYVKRATNREPSAHDYWWAEHQKTCGGTYIKIKEPENYSKKGKGKAKLGKEPVLAAENKD
notes: SPRTN, human, residues 26-240 (plasmid pNIC28-SPRTN (26-240)), variant E112Q; also called SPRTN core (E112Q); ΔMIU, ΔC: 26–240 aa; source: E. coli BL21(DE3), purified (Ni-NTA, TEV cleavage, HisTrap flow-through, SEC)
A Kd [4] of about 70 µM, a Kd [5] of about 35 µM and a Kd [6] of about 132 µM were found for B2 in this work.

B3: SPRTN PIP-UBZ (320-489) (domain or fragment, human, UniProt Q9H040 320-489, looked up)
chain: VSNSHQNVLSNYFPRVSFANQKAFRGVNGSPRISVTVGNIPKNSVSSSSQRRVSSSKISLRNSSKVTESASVMPSQDVSGSEDTFPNKRPRLEDKTVFDNFFIKKEQIKSSGNDPKYSTTTAQNSSSSSSQSKMVNCPVCQNEVLESQINEHLDWCLEGDSIKVKSEESL
notes: SPRTN, human, PIP box to UBZ, residues 320-489; plasmid pCold I-SPRTN-PIP-UBZ (320-489); Its purification is not described; amine-coupled to a CM5 chip for SPR
A Kd [7] of 12.8 ± 2 µM was found for B3 in this work.

Source: article PMC12277127 (Nucleic Acids Research, 2024)
